Assays:
Env of B.MN virus = Env of B.MN virus (HIV-1); assay: cell-based or functional assay
Env of SHIV-SF162P4 = Env of SHIV-SF162P4 (SHIV); assay: cell-based or functional assay
Env of SHIV-BaL = Env of SHIV-BaL (SHIV); assay: cell-based or functional assay
Env of SHIV-1157ipd3N4 = Env of SHIV-1157ipd3N4 (SHIV); assay: cell-based or functional assay
AE.A244 V1V2 Tags = AE.A244 V1V2 Tags (HIV-1); assay: ELISA; markers as in the legend printed on D00157
[1] = molecular target: T1, AE.A244 V1/V2 tags, natively deglycosylated (HIV-1); assay: ELISA
T1 construct: also called AE.A244V1V2 tags Degly

J08 A.92RW020V1V2 = J08 A.92RW020V1V2 (HIV-1); assay: SPR (BIAcore), mAb captured on anti-Fc surface, V1V2 protein injected as analyte, Synagis surface subtracted, global 1:1 Langmuir fit
A.9004SS V1/V2 tags = molecular target: T2, A.9004SS V1/V2 tags; assay: ELISA, OD405 at 10 ug/ml
T2 V1V2 tags construct: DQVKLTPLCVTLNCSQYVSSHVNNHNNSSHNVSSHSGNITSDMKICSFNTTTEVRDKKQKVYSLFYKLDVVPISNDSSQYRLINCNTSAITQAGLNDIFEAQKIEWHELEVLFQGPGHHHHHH

AE.con gp140CF = assay: ELISA, OD405 at 10 ug/ml
B.62357 gp140C = molecular target: T3, B.62357 gp140C; assay: ELISA, OD405 at 10 ug/ml
T3 construct: also called B.62357 140C

B.63521_V1/V2 tags = assay: ELISA, OD405 at 10 ug/ml
B.Case A2 V1/V2 tags = assay: ELISA, OD405 at 10 ug/ml
B.con gp140CF = assay: ELISA, OD405 at 10 ug/ml
C.1086 gp140 = molecular target: T4, C.1086 gp140; assay: ELISA, OD405 at 10 ug/ml
T4 construct: also called C.1086gp140C

Con 6 gp120 = assay: ELISA, OD405 at 10 ug/ml
D.9009SA V1/V2 tags = assay: ELISA, OD405 at 10 ug/ml
G.con gp140CF = assay: ELISA, OD405 at 10 ug/ml
C.CAP206 gp140CF.12 = C.CAP206 gp140CF.12 (HIV-1); assay: ELISA, OD405 at 10 ug/ml
C.1086 V1V2 Tags = C.1086 V1V2 Tags (HIV-1); assay: ELISA, OD405 at 10 ug/ml
gp70 C.1086 V1/V2 = molecular target: T5, gp70 C.1086 V1/V2 (HIV-1 V1V2 on murine leukemia virus gp70); assay: ELISA, OD405 at 10 ug/ml
T5 construct: also called C.gp70 1086C V1V2; C.1086gp70V1V2
T5 chain: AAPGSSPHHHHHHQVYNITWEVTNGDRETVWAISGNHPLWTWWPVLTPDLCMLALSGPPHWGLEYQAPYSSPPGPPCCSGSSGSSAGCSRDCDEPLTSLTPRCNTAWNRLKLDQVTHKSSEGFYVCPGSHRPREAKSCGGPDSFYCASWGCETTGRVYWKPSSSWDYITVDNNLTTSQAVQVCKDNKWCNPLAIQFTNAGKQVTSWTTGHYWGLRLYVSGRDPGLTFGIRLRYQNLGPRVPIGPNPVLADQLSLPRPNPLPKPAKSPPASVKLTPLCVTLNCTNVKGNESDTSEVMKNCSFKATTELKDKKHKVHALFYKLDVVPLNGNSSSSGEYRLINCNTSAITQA

AE.97CNG2XF gp140CF = molecular target: T6, AE.97CNG2XF gp140CF (HIV-1); assay: ELISA, OD405 at 10 ug/ml
T6 construct: also called E.97CNGX2F gp140CF

B.HXB/BAL gp140CFI = molecular target: T7, B.HXB/BAL gp140CFI (HIV-1, UniProt P04578 33-680); assay: ELISA, OD405 at 10 ug/ml
T7 construct: also called B.HxB/Ba gp140 CFI

B.9021 gp140C = B.9021 gp140C (HIV-1); assay: ELISA, OD405 at 10 ug/ml
C.1086 gp120 = C.1086 gp120 (HIV-1); assay: ELISA, OD405 at 10 ug/ml
SIV CPZ US-1 gp140CF = molecular target: T8, SIV CPZ US-1 gp140CF (SIVcpz); assay: ELISA, OD405 at 10 ug/ml
T8 construct: also called US-1 SIVCPZ gp140CF
T8 chain: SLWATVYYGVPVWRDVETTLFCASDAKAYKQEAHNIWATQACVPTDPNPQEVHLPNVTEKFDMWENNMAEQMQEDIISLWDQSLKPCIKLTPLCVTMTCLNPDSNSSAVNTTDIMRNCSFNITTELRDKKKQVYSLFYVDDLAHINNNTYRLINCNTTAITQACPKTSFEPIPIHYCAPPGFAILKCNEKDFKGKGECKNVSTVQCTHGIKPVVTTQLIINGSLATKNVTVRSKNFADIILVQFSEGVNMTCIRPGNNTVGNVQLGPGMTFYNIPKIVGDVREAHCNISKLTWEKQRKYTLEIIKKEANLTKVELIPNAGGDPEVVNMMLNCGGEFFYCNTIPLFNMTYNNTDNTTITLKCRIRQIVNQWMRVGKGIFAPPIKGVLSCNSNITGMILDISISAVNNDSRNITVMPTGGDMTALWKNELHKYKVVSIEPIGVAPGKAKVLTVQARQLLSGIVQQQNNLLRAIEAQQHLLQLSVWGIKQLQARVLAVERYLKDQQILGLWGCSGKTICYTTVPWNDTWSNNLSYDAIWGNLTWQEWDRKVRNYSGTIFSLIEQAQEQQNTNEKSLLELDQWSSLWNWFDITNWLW

B1: CH59 (antibody, V domains shown)
VH: EVQLVESGGGLVQPGRSLRLSCAASGFTFDDGAMHWVRQAPGKGLEWVSGISWNSNIIAYADSVKGRFTISRDNAKNSLYLEMNSLRVEDTALYYCAKDSPRGELPLNYWGQGTLVTVSS
VL: SYELTQPPSVSVSPGQTARITCSGDALPKNYAYWYQQKSGQAPVLVIYEDSKRPSGIPERFSGSSSGTMATLTISGAQVEDEADYYCYSTDSSGNHRVFGGGTKLTVL
notes: also called mAb CH59
**Q.** B1 was tested. Which “EC50, neutralization of B.MN” value (Env of B.MN virus) did it give?
**A.** Its value is greater than 50 µg/mL.

**Q.** What about the “EC50, neutralization of SHIV-SF162P4” value (Env of SHIV-SF162P4) of the same binder?
**A.** Its value is greater than 50 µg/mL.

**Q.** And the “EC50, neutralization of SHIV-BaL” value (Env of SHIV-BaL)?
**A.** Its value is greater than 50 µg/mL.

**Q.** What about the “EC50, neutralization of SHIV-1157ipd3N4” value (Env of SHIV-1157ipd3N4) of the same binder?
**A.** Its value is greater than 50 µg/mL.

B2: CH59 reverted unmutated ancestor antibody (antibody, V domains shown)
VH: EVQLVESGGGLVQPGRSLRLSCAASGFTFDDYAMHWVRQAPGKGLEWVSGISWNSGSIGYADSVKGRFTISRDNAKNSLYLQMNSLRAEDTALYYCAKDSPRGELPFDYWGQGTLVTVSS
VL: SYELTQPPSVSVSPGQTARITCSGDALPKKYAYWYQQKSGQAPVLVIYEDSKRPSGIPERFSGSSSGTMATLTISGAQVEDEADYYCYSTDSSGNHRVFGGGTKLTVL
notes: also called CH59 RUA; CH59_RUA
**Q.** For B2, which “EC50 (read off the curve)” value (AE.A244 V1V2 Tags) is on record?
**A.** The value was roughly 0.08 µg/mL.

B3: 697D (antibody, V domains shown)
VH: QVQLVQSGAEVKKPGSSVKVSCKASGGNFNTYTISWVRQAPGQGLEWMGRIIPIFGIVNPAQKFPGRVTINVDKSTNTAYMELSSLRSEDTAVYYCATSGVGLHFGYFDYWGQGTQVTVSS
VL: QSVLTQPPSVSGAPGQRVTISCTGSSSNIGAHYDVHWYQQLPGTAPKLLIYGNSNRPSGVPDRFSGSKSGTSASLAITGLQAEDEADYYCQSYDSSLSGYVFGTGTKVTVL
notes: also called mAb 697D; V2 conformational mAb 697D
**Q.** B3 was tested. Which “fold decrease of binding against the glycosylated protein” value [1] did it give?
**A.** Its value is 6 fold.

**Q.** And the Kd (J08 A.92RW020V1V2)?
**A.** Its Kd is 57.5 nM.

**Q.** And the koff (J08 A.92RW020V1V2)?
**A.** The koff was 0.008 s⁻¹.

**Q.** What about the kon (J08 A.92RW020V1V2) of the same binder?
**A.** Its kon is 140000 M⁻¹ s⁻¹.

B4: 697D reverted unmutated ancestor antibody (antibody, V domains shown)
VH: QVQLVQSGAEVKKPGSSVKVSCKASGGTFSSYTISWVRQAPGQGLEWMGRIIPILGIANYAQKFQGRVTITADKSTSTAYMELSSLRSEDTAVYYCATSGVGLHFGYFDYWGQGTLVTVSS
VL: QSVLTQPPSVSGAPGQRVTISCTGSSSNIGAGYDVHWYQQLPGTAPKLLIYGNSNRPSGVPDRFSGSKSGTSASLAITGLQAEDEADYYCQSYDSSLSGYVFGTGTKVTVL
notes: also called 697D RUA
**Q.** Does B4 bind (A.9004SS V1/V2 tags)?
**A.** Result: no binding (tested: 10 ug/ml)

**Q.** Does B4 bind (AE.con gp140CF)?
**A.** Result: no binding (tested: 10 ug/ml)

**Q.** Does B4 bind (B.62357 gp140C)?
**A.** Result: no binding (tested: 10 ug/ml)

**Q.** Does B4 bind (B.63521_V1/V2 tags)?
**A.** Result: no binding (tested: 10 ug/ml)

**Q.** Does B4 bind (B.Case A2 V1/V2 tags)?
**A.** Result: no binding (tested: 10 ug/ml)

**Q.** Does B4 bind (B.con gp140CF)?
**A.** Result: no binding (tested: 10 ug/ml)

**Q.** Does B4 bind (C.1086 gp140)?
**A.** Result: no binding (tested: 10 ug/ml)

**Q.** Does B4 bind (Con 6 gp120)?
**A.** Result: no binding (tested: 10 ug/ml)

**Q.** Does B4 bind (D.9009SA V1/V2 tags)?
**A.** Result: no binding (tested: 10 ug/ml)

**Q.** Does B4 bind (G.con gp140CF)?
**A.** Result: no binding (tested: 10 ug/ml)

**Q.** Does B4 bind (C.CAP206 gp140CF.12)?
**A.** Result: no binding (tested: 10 ug/ml)

**Q.** Does B4 bind (C.1086 V1V2 Tags)?
**A.** Result: no binding (tested: 10 ug/ml)

**Q.** Does B4 bind (gp70 C.1086 V1/V2)?
**A.** Result: no binding (tested: 10 ug/ml)

**Q.** Does B4 bind (AE.97CNG2XF gp140CF)?
**A.** Result: no binding (tested: 10 ug/ml)

**Q.** Does B4 bind (B.HXB/BAL gp140CFI)?
**A.** Result: no binding (tested: 10 ug/ml)

**Q.** Does B4 bind (B.9021 gp140C)?
**A.** Result: no binding (tested: 10 ug/ml)

**Q.** Does B4 bind (C.1086 gp120)?
**A.** Result: no binding (tested: 10 ug/ml)

**Q.** Does B4 bind (SIV CPZ US-1 gp140CF)?
**A.** Result: no binding (tested: 10 ug/ml)
